The values below are quoted from earlier work in patent US20070225245A1, “Viral vector driven mutant bacterial cytosine deaminase gene and uses thereof” (priority 1998, published 2007).

For this data set the following is noted: cited from earlier work.

B1: yCD: yeast cytosine deaminase (protein, UniProt Q12178 1-158, looked up)
Cytosine deaminase: MVTGGMASKWDQKGMDIAYEEAALGYKEGGVPIGGCLINNKDGSVLGRGHNMRFQKGSATLHGEISTLENCGRLEGKVYKDTTLYTTLSPCDMCTGAIIMYGIPRCVVGENVNFKSKGEKYLQTRGHEVVVVDDERCKKIMKQFIDERPQDWFEDIGE
B1: the enzyme activity result (by 96 h at 37° C.) is “loses all activity”.

B2: bCD: wild type bacterial cytosine deaminase (protein, UniProt P25524 2-427, looked up)
Cytosine deaminase: SNNALQTIINARLPGEEGLWQIHLQDGKISAIDAQSGVMPITENSLDAEQGLVIPPFVEPHIHLDTTQTAGQPNWNQSGTLFEGIERWAERKALLTHDDVKQRAWQTLKWQIANGIQHVRTHVDVSDATLTALKAMLEVKQEVAPWIDLQIVAFPQEGILSYPNGEALLEEALRLGADVVGAIPHFEFTREYGVESLHKTFALAQKYDRLIDVHCDEIDDEQSRFVETVAALAHHEGMGARVTASHTTAMHSYNGAYTSRLFRLLKMSGINFVANPLVNIHLQGRFDTYPKRRGITRVKEMLESGINVCFGHDDVFDPWYPLGTANMLQVLHMGLHVCQLMGYGQINDGLNLITHHSARTLNLQDYGIAAGNSANLIILPAENGFDALRRQVPVRYSVRGGKVIASTQPAQTTVYLEQPEAIDYKR
On to B2, for which, where the note is “at 168 h”, the retained activity is recorded as 100%.
